In article PMC7170535:

Assays:
[1] = molecular target: recombinant inter-α-inhibitor heavy chain 1 (rHC1), D298A MIDAS mutant (human) (UniProt P19827); experiment: SPR; 1,500 RU rHC1 proteins immobilised on a C1 chip by amide cross-linking; ligand as analyte; HEPES-buffered saline pH 7.5, 0.05% Tween 20, 2 mM Mg2+, 2 mM Mn2+; 50 μl/min; multicycle kinetics, 1:1 Langmuir
[2] = molecular target: recombinant inter-α-inhibitor heavy chain 1 (rHC1), wild type (human) (UniProt P19827); experiment: as above
recombinant inter-α-inhibitor heavy chain 1 (rHC1), wild type (human), sequence (P19827 35-672): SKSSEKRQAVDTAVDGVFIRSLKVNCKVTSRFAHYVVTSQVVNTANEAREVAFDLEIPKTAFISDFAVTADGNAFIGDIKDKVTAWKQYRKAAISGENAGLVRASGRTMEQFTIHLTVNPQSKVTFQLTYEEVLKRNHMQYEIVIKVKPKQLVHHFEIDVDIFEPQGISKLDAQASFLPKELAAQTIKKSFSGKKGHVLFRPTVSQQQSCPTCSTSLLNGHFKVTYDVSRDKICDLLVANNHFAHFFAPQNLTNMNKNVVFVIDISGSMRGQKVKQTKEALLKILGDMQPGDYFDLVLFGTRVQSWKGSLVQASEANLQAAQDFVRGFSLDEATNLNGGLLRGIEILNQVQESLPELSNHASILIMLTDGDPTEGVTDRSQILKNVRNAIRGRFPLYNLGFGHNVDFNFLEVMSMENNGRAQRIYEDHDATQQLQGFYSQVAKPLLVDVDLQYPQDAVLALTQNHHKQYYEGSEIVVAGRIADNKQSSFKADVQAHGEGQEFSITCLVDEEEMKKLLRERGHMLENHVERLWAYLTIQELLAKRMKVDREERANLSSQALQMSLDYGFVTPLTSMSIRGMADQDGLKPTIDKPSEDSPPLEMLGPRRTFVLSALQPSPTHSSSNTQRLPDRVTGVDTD

[3] = molecular target: complement C3 (human); experiment: SPR; ~2,000 RU C3 immobilised on a CM5 chip by amide coupling; rHC1 or IαI as analyte; HEPES-buffered saline pH 7.5, 0.05% Tween 20, 2 mM Mg2+, 2 mM Mn2+; multicycle kinetics, 1:1 Langmuir
[4] = molecular target: recombinant inter-α-inhibitor heavy chain 1 (rHC1), wild type (human) (UniProt P19827); experiment: SPR; 1,500 RU rHC1 proteins immobilised on a C1 chip by amide cross-linking; ligand as analyte; HEPES-buffered saline pH 7.5, 0.05% Tween 20, 10 mM EDTA; 50 μl/min; multicycle kinetics, 1:1 Langmuir

LTBP1 N-terminal region (NT1), recombinant domain (domain or fragment), sequence (Q14766 24-1721): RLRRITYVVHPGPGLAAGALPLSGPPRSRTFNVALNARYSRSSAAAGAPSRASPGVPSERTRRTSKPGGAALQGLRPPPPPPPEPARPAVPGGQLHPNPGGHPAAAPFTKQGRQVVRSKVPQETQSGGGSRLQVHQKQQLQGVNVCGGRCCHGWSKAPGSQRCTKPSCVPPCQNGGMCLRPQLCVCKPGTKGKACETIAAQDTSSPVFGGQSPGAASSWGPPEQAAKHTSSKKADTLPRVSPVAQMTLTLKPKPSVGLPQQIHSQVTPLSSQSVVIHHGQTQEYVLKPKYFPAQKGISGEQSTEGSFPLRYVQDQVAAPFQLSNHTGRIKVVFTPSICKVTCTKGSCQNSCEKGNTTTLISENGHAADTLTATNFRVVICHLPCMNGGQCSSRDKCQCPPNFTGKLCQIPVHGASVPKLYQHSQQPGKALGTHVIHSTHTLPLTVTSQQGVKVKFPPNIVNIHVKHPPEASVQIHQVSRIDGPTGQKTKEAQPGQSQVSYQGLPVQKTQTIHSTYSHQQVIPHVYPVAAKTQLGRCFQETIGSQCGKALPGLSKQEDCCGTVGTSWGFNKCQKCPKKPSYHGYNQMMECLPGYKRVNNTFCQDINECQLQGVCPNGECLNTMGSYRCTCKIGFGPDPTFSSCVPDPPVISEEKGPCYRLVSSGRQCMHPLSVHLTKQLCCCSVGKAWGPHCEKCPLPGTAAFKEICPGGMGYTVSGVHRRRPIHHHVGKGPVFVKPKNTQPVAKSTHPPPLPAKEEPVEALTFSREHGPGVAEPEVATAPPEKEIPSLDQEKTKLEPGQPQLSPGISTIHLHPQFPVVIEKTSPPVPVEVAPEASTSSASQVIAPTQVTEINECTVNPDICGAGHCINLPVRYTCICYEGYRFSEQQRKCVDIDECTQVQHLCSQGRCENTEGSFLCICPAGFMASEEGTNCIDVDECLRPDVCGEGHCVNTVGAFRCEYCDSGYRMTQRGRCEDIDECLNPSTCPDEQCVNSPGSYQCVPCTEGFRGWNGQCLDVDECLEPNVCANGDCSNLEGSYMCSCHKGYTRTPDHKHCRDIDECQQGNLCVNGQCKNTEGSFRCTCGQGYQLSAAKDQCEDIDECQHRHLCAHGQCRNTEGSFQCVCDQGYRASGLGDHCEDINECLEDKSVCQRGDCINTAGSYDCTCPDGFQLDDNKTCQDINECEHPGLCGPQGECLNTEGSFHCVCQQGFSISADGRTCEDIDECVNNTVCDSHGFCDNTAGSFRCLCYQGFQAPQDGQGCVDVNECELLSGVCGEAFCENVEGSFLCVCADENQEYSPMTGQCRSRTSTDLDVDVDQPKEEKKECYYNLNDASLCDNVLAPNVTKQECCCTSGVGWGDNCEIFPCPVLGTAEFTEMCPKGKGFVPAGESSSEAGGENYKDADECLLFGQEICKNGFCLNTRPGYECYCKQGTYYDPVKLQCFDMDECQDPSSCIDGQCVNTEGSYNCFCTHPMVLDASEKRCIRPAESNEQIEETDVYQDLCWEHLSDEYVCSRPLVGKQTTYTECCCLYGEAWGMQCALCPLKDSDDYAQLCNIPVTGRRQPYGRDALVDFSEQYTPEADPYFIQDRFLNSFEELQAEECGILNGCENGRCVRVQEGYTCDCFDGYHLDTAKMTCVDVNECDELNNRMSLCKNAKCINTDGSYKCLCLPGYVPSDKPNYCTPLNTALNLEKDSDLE
recombinant inter-α-inhibitor heavy chain 1 (rHC1), D298A MIDAS mutant (human), sequence (P19827 35-672 D298A): as the sequence (P19827 35-672) above, with D264A counted along it

A Kd [1] of 14.9 nM and a Kd [2] of 16.1 nM were found for “TGFβ1-LAP, small latent complex of TGFβ1 (from UniProt P01137 30-278)” in this work.
A Kd [3] of 659 nM was found for “inter-α-inhibitor (IαI) (from UniProt P19827 35-672; P19823 55-702) (complex)” in this work.
A Kd [2] of 4.6 nM and a Kd [4] of 5.1 nM were found for “LTBP1 N-terminal region (NT1), recombinant domain (domain or fragment)” in this work.
